Residue numbers refer to the chain shown, from its start. In names and notes the source's numbering stands.
Assays:
[1] = biological target: T1, ParA (His6-ParA) (Myxococcus xanthus) (UniProt Q1CVJ3); experiment: BLI; settings: BLI: 25 mM HEPES/KOH pH 7.6, 100 mM KCl (150 or 500 mM where stated), 10 mM MgSO4, 1 mM DTT, 10 mM (so in the source) BSA, 0.01% Tween 20; temperature not stated
T1 sequence: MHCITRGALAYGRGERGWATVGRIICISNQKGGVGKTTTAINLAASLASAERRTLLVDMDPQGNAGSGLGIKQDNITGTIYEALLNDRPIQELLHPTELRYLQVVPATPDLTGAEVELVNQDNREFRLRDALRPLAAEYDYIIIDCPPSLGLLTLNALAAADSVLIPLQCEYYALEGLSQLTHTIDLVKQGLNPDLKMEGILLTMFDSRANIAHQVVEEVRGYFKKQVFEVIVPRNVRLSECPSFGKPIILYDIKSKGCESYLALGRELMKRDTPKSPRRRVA

[2] = biological target: T2, ParA-D60A D60A (Myxococcus xanthus) (UniProt Q1CVJ3); experiment: BLI; settings: BLI: 25 mM HEPES/KOH pH 7.6, 100 mM KCl (150 or 500 mM where stated), 10 mM MgSO4, 1 mM DTT, 10 mM (so in the source) BSA, 0.01% Tween 20; temperature not stated
T2 sequence: T1 sequence with D60A

[3] = biological target: T3, ParA-R238E (ParA*) R238E (Myxococcus xanthus) (UniProt Q1CVJ3); experiment: BLI; settings: BLI: 25 mM HEPES/KOH pH 7.6, 100 mM KCl (150 or 500 mM where stated), 10 mM MgSO4, 1 mM DTT, 10 mM (so in the source) BSA, 0.01% Tween 20; temperature not stated
T3 sequence: T1 sequence with R238E

[4] = biological target: T4, ParB (Myxococcus xanthus) (UniProt Q1CVJ4); experiment: BLI; settings: BLI: 25 mM HEPES/KOH pH 7.6, 100 mM KCl (150 or 500 mM where stated), 10 mM MgSO4, 1 mM DTT, 10 mM (so in the source) BSA, 0.01% Tween 20; temperature not stated
T4 sequence: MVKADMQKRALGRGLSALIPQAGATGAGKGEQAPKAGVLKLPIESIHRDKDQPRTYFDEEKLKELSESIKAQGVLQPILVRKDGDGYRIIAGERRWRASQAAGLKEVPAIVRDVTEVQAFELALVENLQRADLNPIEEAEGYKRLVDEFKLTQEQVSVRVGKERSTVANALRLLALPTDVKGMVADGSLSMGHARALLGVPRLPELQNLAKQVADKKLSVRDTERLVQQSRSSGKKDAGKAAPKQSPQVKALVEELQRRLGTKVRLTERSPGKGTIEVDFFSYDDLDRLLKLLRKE

[5] = biological target: T5, ParB delta21 del1-21 (Myxococcus xanthus) (UniProt Q1CVJ4); experiment: BLI; settings: BLI: 25 mM HEPES/KOH pH 7.6, 100 mM KCl (150 or 500 mM where stated), 10 mM MgSO4, 1 mM DTT, 10 mM (so in the source) BSA, 0.01% Tween 20; temperature not stated
T5 sequence: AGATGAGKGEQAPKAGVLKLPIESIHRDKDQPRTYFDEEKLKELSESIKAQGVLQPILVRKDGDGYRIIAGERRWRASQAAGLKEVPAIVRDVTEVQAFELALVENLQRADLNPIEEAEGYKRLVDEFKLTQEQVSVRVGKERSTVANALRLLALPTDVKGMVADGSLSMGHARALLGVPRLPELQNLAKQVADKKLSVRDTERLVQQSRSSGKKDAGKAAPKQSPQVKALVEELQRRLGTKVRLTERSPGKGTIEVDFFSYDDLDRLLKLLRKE

[6] = biological target: T6, ParB-Q52A (ParB*) Q52A (Myxococcus xanthus) (UniProt Q1CVJ4); experiment: BLI; settings: BLI: 25 mM HEPES/KOH pH 7.6, 100 mM KCl (150 or 500 mM where stated), 10 mM MgSO4, 1 mM DTT, 10 mM (so in the source) BSA, 0.01% Tween 20; temperature not stated
T6 sequence: T4 sequence with Q52A

[7] = tested on: ParA (His6-ParA) (Myxococcus xanthus); experiment: BLI; settings: 1 mM ATP, BLI: 25 mM HEPES/KOH pH 7.6, 100 mM KCl (150 or 500 mM where stated), 10 mM MgSO4, 1 mM DTT, 10 mM (so in the source) BSA, 0.01% Tween 20, temperature not stated
[8] = biological target: T7, ParB-Q52A (Myxococcus xanthus DK1622, UniProt Q1CVJ4 1-296, Q52A); experiment: BLI; ParB-Q52A (10 µM) loaded on closed parS DNA on the biosensor; ParA variants (5 µM) in solution with ATP (1 mM) and 500 mM KCl; settings: both partners purified
T7 construct: ParB of Myxococcus xanthus DK1622, variant lacking CTPase activity; Closed clamps formed with CTP and parS DNA; also called CTP hydrolysis-deficient ParB variant; source: E. coli Rosetta(DE3)pLysS, purified (as wild-type ParB)
T7 sequence (looked up): T4 sequence with Q52A

[9] = biological target: the molecule itself; experiment: SEC; ParA proteins at 2.5 mg/mL (75 µM) in 25 mM Tris/HCl, 200 mM KCl, 5 mM MgSO4, 2 mM DTT, pH 7.4; Superdex 75 3.2/300; monomer to dimer
[10] = biological target: T8, ParB-Q52A-R13K (Myxococcus xanthus DK1622, UniProt Q1CVJ4 1-296, Q52A | R13K); experiment: BLI; ParB-Q52A variants loaded on closed parS DNA on the biosensor with CTP; ParA-R238E (5 µM) in solution with ATP and CTP (1 mM each); settings: both partners purified
T8 construct: ParB of Myxococcus xanthus DK1622, ParB-Q52A variant lacking the conserved residue R13; also called ParB* R13K; R13K variant; source: E. coli Rosetta(DE3)pLysS, purified (as wild-type ParB)
T8 sequence (looked up): T4 sequence with R13K, Q52A

[11] = biological target: T9, ParB-Q52A-R13A (Myxococcus xanthus DK1622, UniProt Q1CVJ4 1-296, Q52A | R13A); experiment: as above; settings: both partners purified
T9 construct: ParB of Myxococcus xanthus DK1622, ParB-Q52A variant lacking the conserved residue R13; also called ParB* R13A; R13A variant; source: E. coli Rosetta(DE3)pLysS, purified (as wild-type ParB)
T9 sequence (looked up): T4 sequence with R13A, Q52A

[12] = biological target: T10, ParB (wild type) (Myxococcus xanthus DK1622, UniProt Q1CVJ4 1-296); experiment: BLI; double-biotinylated 234-bp parS DNA on streptavidin biosensor, loaded with ParB or its derivatives (10 µM) and 1 mM CTPγS; ParA-R238E variants in solution with 1 mM ATP; 25 mM HEPES/KOH pH 7.6, 100 mM KCl, 10 mM MgSO4, 1 mM DTT; apparent KD; settings: both partners purified
T10 construct: ParB of Myxococcus xanthus DK1622, translation product of ORF MXAN_7476; In the BLI assays loaded as a closed clamp on parS-containing DNA with CTPγS; also called M. xanthus ParB; wild-type ParB; source: E. coli Rosetta(DE3)pLysS, purified (HisTrap HP, Ulp1 cleavage, HiTrap SP HP)
T10 sequence (looked up): T4 sequence

[13] = biological target: the molecule itself; experiment: crystal structure; His6-ParA_(21-274)-D60A (1 mM) with 10 mM ATP and 5 mM ParB_(1-20), sitting drop, 20 °C; crystals held only the ParA dimer with ATP

“TCCGCTTGGCGTGAGTTCCTGACGCTTGGTGGGAAGGATGCGCGTGCTGATGCGTGCACCTCAGTGAAGTGGATGGCGCGGCTGCTCATGCGCGGGTTGCTCAGCGCCTGTTCCACGTGGAACGCGGGATGGATTGATGGTGGGCACGCGCGCAGCGCCGGAGAGTTCGCTGACGGCTCCGCGTTCAGGCTCGTGATGCGCTCATGGTTCATGGAGTGGTGAGTGCTCCACCGG (double strand) [234-bp parS fragment, closed on biosensor]” was tested, and the Kd [1] was 400 nM, the binding [2] was “binds” and the binding [3] was “no binding”. For the same molecule, the binding [4] was “binds”, the binding [5] was “binds” and the binding [6] was “binds”.

“234-bp parS fragment, closed on biosensor” was tested, and the Kd ([7]; 150 uM ParB1-20 peptide) was 400 nM and the Kd ([7]; no ParB1-20 peptide) was 7800 nM.

B1: ParA (wild type) (natural protein, Myxococcus xanthus DK1622, UniProt Q1CVJ3 1-283, looked up)
chain: T1 sequence
notes: ParA of Myxococcus xanthus DK1622, translation product of ORF MXAN_7477; No tag cleavage step is described; also called His6-ParA; wild-type ParA; source: E. coli Rosetta(DE3)pLysS, purified (HisTrap HP, HiTrap Q HP)
B1: binds [8]; binds [9].

B2: ParA-D110R/E117R (natural protein, Myxococcus xanthus DK1622, UniProt Q1CVJ3 1-283, looked up)
chain: T1 sequence with D110R, E117R
notes: ParA of Myxococcus xanthus DK1622 with two exchanges in the helix H4/H6/H7 region; source: E. coli Rosetta(DE3)pLysS, purified (as His6-ParA)
B2: binds [8].

B3: ParA-R238E (natural protein, Myxococcus xanthus DK1622, UniProt Q1CVJ3 1-283, looked up)
chain: T1 sequence with R238E
notes: ParA of Myxococcus xanthus DK1622, translation product of ORF MXAN_7477; Purified as His6-ParA; no tag cleavage step is described; also called His6-ParA-R238E; source: E. coli Rosetta(DE3)pLysS, purified (HisTrap HP, HiTrap Q HP)
With B3 the binding result [10] was “binds”, the binding result [11] was “binds” and the Kd [12] was roughly 1000 nM.

B4: ParA-Y81L (natural protein, Myxococcus xanthus DK1622, UniProt Q1CVJ3 1-283, looked up)
chain: T1 sequence with Y81L
notes: ParA of Myxococcus xanthus DK1622 with an exchange in the helix H4/H6/H7 region; also called Y81L variant; source: E. coli Rosetta(DE3)pLysS, purified (as His6-ParA)
B4: binds [8].

B5: ParA-D110R (natural protein, Myxococcus xanthus DK1622, UniProt Q1CVJ3 1-283, looked up)
chain: T1 sequence with D110R
notes: ParA of Myxococcus xanthus DK1622 with an exchange in the helix H4/H6/H7 region; source: E. coli Rosetta(DE3)pLysS, purified (as His6-ParA)
B5: binds [8].

B6: ParA-E117R (natural protein, Myxococcus xanthus DK1622, UniProt Q1CVJ3 1-283, looked up)
chain: T1 sequence with E117R
notes: as for B5
B6: binds [8].

B7: His6-ParA_(21-274)-D60A (domain or fragment, Myxococcus xanthus DK1622, UniProt Q1CVJ3 21-274, looked up)
chain: VGRIICISNQKGGVGKTTTAINLAASLASAERRTLLVDMAPQGNAGSGLGIKQDNITGTIYEALLNDRPIQELLHPTELRYLQVVPATPDLTGAEVELVNQDNREFRLRDALRPLAAEYDYIIIDCPPSLGLLTLNALAAADSVLIPLQCEYYALEGLSQLTHTIDLVKQGLNPDLKMEGILLTMFDSRANIAHQVVEEVRGYFKKQVFEVIVPRNVRLSECPSFGKPIILYDIKSKGCESYLALGRELMKRDT
notes: For NMR the protein was 2H/13C/15N-labelled; source: E. coli Rosetta(DE3)pLysS, purified (as His6-ParA)
B7: binds [13].

From article PMC12462528, “Molecular basis of ParA ATPase activation by the CTPase ParB during bacterial chromosome segregation” (Nature Communications, 2025)
